In patent publication US20230137139A1, “BIOSYNTHESIS OF CANNABINOIDS AND C[…]” (priority 2020, published 2023):

Assays:
[1] = system: CBCA, THCA, and CBDA production; assay: In vivo TS activity assay, Example 2 protein engineering of A. niger CBCAS, cultures fed olivetolic acid; format: cell-based, S. cerevisiae; conditions: for Mean CBCA / Mean CBDA / Mean THCA: secondary screen, olivetolic acid (Table 8); for % CBCA / % CBDA / % THCA: share of terminal cannabinoid product profile
Outline: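 CBCA, THCA and CBDA were measured by LC-MS in methanol extracts of yeast cultures expressing mutant A. niger CBCAS. Cultures were induced at 20 °C with galactose and fed 1 mM olivetolic acid daily for 4 days, then buffered with 100 mM sodium citrate pH 5.5. Secondary screen: quadruplicates fed 1 mM olivetolic or divaric acid.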

[2] = system: CBCVA, THCVA, and CBDVA production; assay: In vivo TS activity assay, Example 2 protein engineering of A. niger CBCAS, cultures fed divaric acid; format: cell-based, S. cerevisiae; conditions: for Mean CBCVA / Mean CBDVA / Mean THCVA: S. cerevisiae strains expressing A. niger CBCAS mutants; for Mean CBCVA / Mean CBDVA / Mean THCVA / average CBCVA titer compared with the A. niger positive control: secondary screen; for Mean CBCVA / Mean CBDVA / Mean THCVA / % CBCVA / % CBDVA / % THCVA: fed divaric acid; for % CBCVA / % CBDVA / % THCVA: share of terminal cannabinoid product profile
Outline: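 Quantification by LC-MS of methanol-extracted production cultures, strains in quadruplicate. Yeast carrying mutant A. niger CBCAS (MFalpha2 N-terminal and HDEL C-terminal signal peptides) were induced 4 days at 20 °C in YEP+4% galactose fed 1 mM divaric acid, re-dosed every 24 h with 2% galactose and 1 mM divaric acid, after 2 days of dextrose preculture at 30 °C; 100 mM citrate pH 5.5 was then added for 2 more days.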

Molecule | Mean CBCA [1] [µg/L] | Mean CBDA [1] [µg/L] | Mean THCA [1] [µg/L] | % CBCA [1] [%] | % CBDA [1] [%] | % THCA [1] [%] | Mean CBCVA [2] [µg/L] | Mean CBDVA [2] [µg/L] | Mean THCVA [2] [µg/L] | average CBCVA titer compared with the A. niger positive control [2] | % CBCVA [2] [%] | % CBDVA [2] [%] | % THCVA [2] [%]
t865748 (protein, expressed in S. cerevisiae strain) MGNTTSIAGRDCLISALGGNSALAVFPNELLWTADVHEFNLNLPVTPAAITYPETAAQIAGVVKCASDYDYKVQARSGGHSFGNYGLGGADGAVVVDMKHFTQFSMDDETYEAVIGPGTTLNDVDIELYNNGKRAMAHGVCPTIKTGGHFTIGGLGPTARQWGLALDHVEEVEVVLANSSIVRASNTQNQDVFFAVKGAAANFGIVTEFKVRTEPAPGLAVQYSYTFNLGSTAEKAQFVKDWQSFISAKNLTRQFYNNMVIFDGDIILEGLFFGSKEQYDALGLEDHFAPKNPGNILVLTDWLGMVGHALEDTILKLVGNTPTWFYAKSLGFRQDTLIPSAGIDEFFEYIANHTAGTPAWFVTLSLEGGAINDVAEDATAYAHRDVLFWVQLFMVNPVGPISDTTYEFTDGLYDVLARAVPESVGHAYLGCPDPRMEDAQQKYWRTNLPRLQELKEELDPKNTFHHPQGVMPA | 21260.42 | 6161.32 | 1575.92 | 73.32 | 21.25 | 5.43 | 3759.89 | 0.00 | 1591.63 | higher | 70.26 | 0.00 | 29.74
t865747 (protein, expressed in S. cerevisiae strain) MGNTTSIAGRDCLISALGGNSALAVFPNELLWTADVHEYNLNLPVTPAAITYPETAAQIAGVVKCASDYDYKVQARSGGHSFGNYGLGGADGAVVVDMKHFTQFSMDDETYEAVIGPGTTLNDVDIELYNNGKRAMAHGVCPTIKTGGHFTIGGLGPTARQWGLALDHVEEVEVVLANSSIVRASNTQNQDVFFAVKGAAANFGIVTEFKVRTEPAPGLAVQYSYTFNLGSTAEKAQFVKDWQSFISAKNLTRQFYNNMVIFDGDIILEGLFFGSKEQYDALGLEDHFAPKNPGNILVLTDWLGMVGHALEDTILKLVGNTPTWFYAKSLGFRQDTLIPSAGIDEFFEYIANHTAGTPAWFVTLSLEGGAINDVAEDATAYAHRDVLFWVQLFMVNPAGPISDTTYEFTDGLYDVLARAVPESVGHAYLGCPDPRMEDAQQKYWRTNLPRLQELKEELDPKNTFHHPQGVMPA | 18021.77 | 4783.24 | 1188.04 | 75.11 | 19.94 | 4.95 | 5571.51 | 0.00 | 2154.32 | higher | 72.12 | 0.00 | 27.88
t865745 (protein, expressed in S. cerevisiae strain) MGNTTSIAGRDCLISALGGNSALAVFPNELLWTADVHEYNLNLPVTPAAITYPETAAQIAGVIKCASDYDYKVQARSGGHSFGNYGLGGADGAVVVDMKHFTQFSMDDETYEAVIGPGTTLNDVDIELYNNGKRAMAHGVCPTIKTGGHFTIGGLGPTARQWGLALDHVEEVEVVLANSSIVRASNTQNQDVFFAVKGAAANFGIVTEFKVRTEPAPGLAVQYSYTFNLGSTAEKAQFVKDWQSFISAKNLTRQFYNNMVIFDGDIILEGLFFGSKEQYDALGLEDHFAPKNPGNILVLTDWLGMVGHALEDTILKLVGNTPTWFYAKSLGFRQDTLIPSAGIDEFFEYIANHTAGTPAWFVTLSLEGGAINDVAEDATAYAHRDVLFWVQLFMVNPVGPISDTTYEFTDGLYDVLARAVPESVGHAYLGCPDPRMEDAQQKYWRTNLPRLQELKEELDPKNTFHHPQGVMPA | 27923.31 | 7360.14 | 1963.25 | 74.97 | 19.76 | 5.27 | 7068.26 | 0.00 | 2991.05 | higher | 70.27 | 0.00 | 29.73
t865732 (protein) MGNTTSIAGRDCLISALGGNSALAVFPNELLWTADVHEYNLNLPVTPAAITYPETAAQIAGVVKCASDYDYKVQARSGGHSFGNYGLGGADGAVVVDMKHFTQFSMDDETYEAVIGPGTTLNDVDIELYNNGKRAMAHGVCPTIKTGGHFTIGGLGPTARQWGLALDHVEEVEVVLANSSIVRASNTQNQDVFFAVKGAAANFGIVTEFKVRTEPAPGLAVQYSYTFNLGSTAEKAQFVKDWQSFISAKNLTRQFYNNMVIFDGDIILEGLFFGSKEQYDALGLEDHFAPKNPGNILVLTDWLGMVGHALEDTILKLVGNTPTWFYAKSLGFRQDTLIPSAGIDEFFEYIANHTAGTPAWFVTLSLEGGAINDVAEDATAYAHRDVLFWVQLFMVNPVGPISDTTYEFTDGLYDVLARAVPESVGYAYLGCPDPRMEDAQQKYWRTNLPRLQELKEELDPKNTFHHPQGVMPA | 22672.81 | 6720.79 | 1523.15 | 73.34 | 21.74 | 4.93 | 4734.85 | 0.00 | 2408.74 | higher | 66.28 | 0.00 | 33.72
t865755 (protein, expressed in S. cerevisiae strain) MGNTTSIAGRDCLISALGGNSALAVFPNELLWTADVHEYNLNLPVTPAAITYPETAAQIAGVVKCASDYDYKVQARSGGHSFGNYGLGGADGAVVVDMKHFTQFSMDDETYEAVIGPGTTLNDVDIELYNNGKRAMAHGVCPTIKTGGHFTIGGLGPTARQWGLALDHVEEVEVVLANSSIVRASNTQNQDVFFAVKGAAANFGIVTEFKVRTEPAPGLAVQYSYTFNLGSTAEKAQFVKDWQSFISAKNLTRQFYNNMVIFDGDIILEGLFFGSKEQYDALGLEDHFAPKNPGNILVLTDWLGMVGHALEDTILKLVGNTPTWFYAKSLGFRQDTLIPSAGIDEFFEYIANHTAGTPAWFVTLSLEGGAINDVAEDATAYAHRDVLFWVQHFMVNPVGPISDTTYEFTDGLYDVLARAVPESVGHAYLGCPDPRMEDAQQKYWRTNLPRLQELKEELDPKNTFHHPQGVMPA | 19432.21 | 4507.57 | 1001.22 | 77.91 | 18.07 | 4.01 | 3729.91 | 0.00 | 1768.56 | higher | 67.84 | 0.00 | 32.16
t865718 (protein) MGNTTSIAGRDCLISALGGNSALAVFPNELLWTADVHEYNLNLPVTPAAITYPETAAQIAGVVKCASDYDYKVQARSGGHSFGNYGLGGADGAVVVDMKHFTQFSMDDETYEAVIGPGTTLNDVDIELYNNGKRAMAHGVCPTIKTGGHFTIGGLGPTARQWGLALDHVEEVEVVLANSSIVRASNTQNQDVFFAVKGAAANFGIVTEFKVRTEPAPGLAVQYSYTFNLGSTAEKAQFVKDWQSFISAKNLTRQFYNNMVIFDGDIILEGLFFGSKEQYDALGLEDHFAPKNPGNILVLTDWLGMVGHALEDTILKLVGNTPTWFYAKSLGFRQDTLIPSAGIDEFFEYIANHTAGTPAWFVTLSLEGGAINDVAEDATAYAHRDVLFWVQLFMVNPVGPISDTTYEFTDGLYDVLARAVPESVGHAYLGCPDPRMEDAQQKYWRTNLPRLQELKEELDPKNTFHHPQGVMRA | 28669.67 | 7340.65 | 1640.20 | 76.15 | 19.50 | 4.36 | 5888.44 | 0.00 | 2516.89 | higher | 70.06 | 0.00 | 29.94
